Laboratory results from the supplement of paper PMC9170038.

Tested on: MS2 coat protein
Test: apparent KD of MS2 coat protein; designed switch direction (-1 OFF switch, 1 ON switch): -1; higher = weaker reporter binding
Outline: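 Designed RNA switches were transcribed on Illumina chips by stalled E. coli RNA polymerase and titrated with SNAP-549-labelled MS2 coat protein from 0.7 or 1.5 nM, doubling to 3 µM. Step length ran from 0.8–1.5 h at the lowest concentration to 10–20 min at the highest. The apparent KD is the median over clusters for each design, from curve-fitted normalised cluster fluorescence.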

[1] = Eterna round: R95, input ligand: microRNA oligo, concentration not stated
[2] = input ligand: microRNA oligo, concentration not stated
[3] = Eterna round: R95, input ligand: FMN 200 uM
[4] = Eterna round: R95, input ligand: none

Sequence	apparent KD of MS2 coat protein [1]	apparent KD of MS2 coat protein (input ligand: FMN 200 uM)	apparent KD of MS2 coat protein (input ligand: none)	apparent KD of MS2 coat protein [2]	apparent KD of MS2 coat protein [3]	apparent KD of MS2 coat protein [4]
UUGAGGUAAGGAUAUAUUAGGAGCGAAGUUACUUGUUUUUUAUAGAAGGUACAUGAGGAUCACCCAUGUGAAUA [JR_Exclu4_Sub062] (puzzle: Exclusion 4)	24.7 nM					
AGUCGUAGACAGGAUAUGCGGCUAAUAAAUAAAGCAGAAGGGUCUACUUGAGGAUCACCCAAGUGGGCGGUCUG [jl-ex6-4.22 ViennaUCT mod] (Eterna round: R97, puzzle: Exclusion 6)		64.9 nM	16.9 nM			
AUAAUACAUGUAGGAUAUGCGUGGCGAAGCUAUGCAGAAGGACAUGAGGAUCACCCAUGUGCUAGCGUCUGCGUACAGAUGCUA [JL eng1 1.35 mod 3] (Eterna round: R96, puzzle: Exclusion NG 1)		310 nM	44.1 nM	21 nM		
UUGAAUUAUAAGGAUAUGGGAGUCGAUAGACACCCAGAAGGUAUAACAUGAGGAUCACCCAUGUGUCCUAUCAA [Mod of Eli 25 - Jieux - Exclusion 6] (Eterna round: R97, puzzle: Exclusion 6)		33.6 nM	18.2 nM			
UAAUUUAGUGUGAGGAUAUGCUGGUCGAUAGAUCAGCAGAAGGCACAUGAGGAUCACCCAUGUAAUAUAUUAAA [Mat - Exclusion 4 - JL Mod - D35] (puzzle: Brourd's mod of Exclusion 4)	62.4 nM				218 nM	60.2 nM
CCAUAUAACUGAGGAUAUAAUCACCACUAACAUUUAGAAGGCAGACAUGAGGAUCACCCAUGUGAUUUCUCAAUAUUAUACAUC [Prohibition 77 - Jieux - Exclusion NG 1] (Eterna round: R96, puzzle: Exclusion NG 1)		387 nM	1140 nM	544 nM		
CUAUCUUGCAAGGAUAUGCAAUUUAUUAUUUAUGCAGAAGGUGCUACAUGAGGAUCACCCAUGUUUCUGGGUUU [JR_E6_Sub046] (Eterna round: R96, puzzle: Exclusion 6)		314 nM	120 nM	116 nM		
GAAAACGAAGAGGAUAUUUGAUAUCAAAGCUUCAAAGAAGGCUUCACAUGAGGAUCACCCAUGUGAUCUUCAAU [Mat - Exclusion 6 - JL Mod - D15] (Eterna round: R97, puzzle: Exclusion 6)		212 nM	24.5 nM			
AAUACAAGCUAUUGAUCCCACAUGAGGAUCACCCAUGUGCCUGGCCGUGAGACCAGGUUUACAAUAGCUCGUCUUAU [Sensor-V1 #47] (Eterna round: R97, puzzle: Sensor, turn-off variant 1)		23.5 nM	23.5 nM			
GAGUGCUAAGGAUAUACAUGAGGAUCACCCAUGUGCUUCAGCUAGGAGACUAGCAUUGGUAGAAGGUAGUACUC [Mod of lroppy 2 - Jieux - Exclusion 3] (Eterna round: R97, puzzle: Exclusion 3)		60.3 nM	14.7 nM			
ACAAGCAGAGAGUAAAUGGACAUGAGGAUCACCCAUGUGAGUCCAAGGAGAUAAGAUAUAUUAUUGGCUCGUCUUAU [AK-miRNA-r3-20] (Eterna round: R97, puzzle: Sensor, turn-off variant 1)		75.2 nM	104 nM			
UAUAUAUAGUAAGGAUAUGUAAUUGUUUUAUAAACAGAAGGUACUGACAUGAGGAUCACCCAUGUUUUAGUGUGGGCAUGUAGA [JMF's solution 33] (Eterna round: R96, puzzle: Exclusion NG 1)				45.7 nM		
AAGAGUGCAGGAUAUACGUGAUGGAGUAGGAUGAGAGAAGGACAUGAGGAUCACCCAUGUAGAAGGGCAGAGAG [JR_Exclu2_Sub059] (puzzle: Exclusion 2)	43.4 nM				28.7 nM	31 nM
